This is an account of results in patent US20240158517A1 (HIFIBIO HK, published 2024).

Test [1] concerns the target T1, cynomolgus CXCR5 (cynomolgus monkey, UniProt G8F5K4 1-372).
T1 construct: whole, on cells; also called monkey CXCR5 ortholog
T1 sequence: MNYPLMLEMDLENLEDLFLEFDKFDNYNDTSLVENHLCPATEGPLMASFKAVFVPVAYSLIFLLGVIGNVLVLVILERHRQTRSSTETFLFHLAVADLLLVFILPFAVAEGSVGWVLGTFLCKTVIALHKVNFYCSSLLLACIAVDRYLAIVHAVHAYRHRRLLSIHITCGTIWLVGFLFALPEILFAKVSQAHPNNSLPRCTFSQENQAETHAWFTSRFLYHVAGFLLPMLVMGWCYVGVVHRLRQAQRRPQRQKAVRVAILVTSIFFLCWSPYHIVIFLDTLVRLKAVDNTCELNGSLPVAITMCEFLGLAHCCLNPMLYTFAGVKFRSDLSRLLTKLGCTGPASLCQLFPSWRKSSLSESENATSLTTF
The test can be described thus: flow cytometry on cells transiently transfected with cynomolgus CXCR5. For orientation: Flow cytometry measures light scatter and fluorescence of single cells or particles in a stream.

Test [2] concerns the target T2, murine CXCR5 (mouse, UniProt Q04683 1-374).
T2 construct: whole, on cells; also called mouse CXCR5 ortholog
T2 sequence (looked up): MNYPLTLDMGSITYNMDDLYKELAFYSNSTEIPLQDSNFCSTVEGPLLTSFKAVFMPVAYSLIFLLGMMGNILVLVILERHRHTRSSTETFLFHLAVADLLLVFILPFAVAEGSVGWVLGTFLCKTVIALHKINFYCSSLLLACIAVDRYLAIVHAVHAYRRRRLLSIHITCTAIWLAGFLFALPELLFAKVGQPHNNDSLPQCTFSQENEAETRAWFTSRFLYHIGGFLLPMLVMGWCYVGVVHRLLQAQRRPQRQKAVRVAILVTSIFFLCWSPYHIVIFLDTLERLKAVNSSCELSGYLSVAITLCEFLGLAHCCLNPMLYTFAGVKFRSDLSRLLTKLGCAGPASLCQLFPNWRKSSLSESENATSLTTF
The test can be described thus: flow cytometry, transiently transfected cells.

Test [3] deals with T3, human CXCR5 (human, UniProt P32302 1-372).
T3 construct: whole, on cells; Always presented on cells; one entry is used for all cell lines; also called hCXCR5; C-X-C chemokine receptor type 5
T3 sequence (looked up): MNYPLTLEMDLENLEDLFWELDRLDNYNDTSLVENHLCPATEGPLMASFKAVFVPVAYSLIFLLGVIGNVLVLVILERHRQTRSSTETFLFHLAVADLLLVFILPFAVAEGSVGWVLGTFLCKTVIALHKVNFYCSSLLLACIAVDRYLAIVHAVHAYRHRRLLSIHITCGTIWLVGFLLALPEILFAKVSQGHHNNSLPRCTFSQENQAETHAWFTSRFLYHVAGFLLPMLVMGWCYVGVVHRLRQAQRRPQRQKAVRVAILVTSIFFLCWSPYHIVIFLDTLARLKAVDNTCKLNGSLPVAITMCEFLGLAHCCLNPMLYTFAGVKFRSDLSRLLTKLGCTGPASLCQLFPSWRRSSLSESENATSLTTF
The test can be described thus: flow cytometry on an adherent stable cell line expressing hCXCR5, MFI normalized on the benchmark MFI.
Protocol: In order to test the binding capacity to CXCR5, six chimeric monoclonal antibodies were tested in binding assay using adherent stable cell line expressing the target antigen hCXCR5.

Test [4] has as its target T4, human CXCR3 (human, UniProt P49682 1-368, limits assumed).
T4 construct: also called hCXCR3
T4 sequence (looked up): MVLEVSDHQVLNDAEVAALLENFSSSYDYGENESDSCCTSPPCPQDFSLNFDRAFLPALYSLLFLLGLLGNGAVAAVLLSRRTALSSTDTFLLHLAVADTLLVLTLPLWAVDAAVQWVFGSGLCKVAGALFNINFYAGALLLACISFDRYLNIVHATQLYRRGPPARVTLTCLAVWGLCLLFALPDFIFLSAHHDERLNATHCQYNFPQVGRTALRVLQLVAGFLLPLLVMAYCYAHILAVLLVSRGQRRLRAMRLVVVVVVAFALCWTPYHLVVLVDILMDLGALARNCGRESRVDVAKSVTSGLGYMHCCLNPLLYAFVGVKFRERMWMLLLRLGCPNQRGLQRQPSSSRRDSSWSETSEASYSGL
The test can be described thus: specificity assay by flow cytometry.

The target of test [5] is T3, human CXCR5. The test can be described thus: flow cytometry on CXCR5+ Raji cells, MFI.

B1: HFB2-5-hG1 (antibody, V domains shown)
VH: QVQLKESGPGLVAPSQSLSITCTVSGFSLTSYGVSWVRQPPGKGLEWLGVIWGDGSTNYHSTLISRLSISKDNSKSQVFLKLNSLQTDDTATYYCARVAYWGQGTLVTVSA
VL: DIVMTQAAPSIPVTPGESVSISCRSSKSLLHSNGKTYLYWFLQRPGQSPQLLIYRMSNLASGVPDRFSGSGSGTAFTLRISRVEAEDVGVYYCMQHLEYPYTFGGGTKLEIK
notes: Mouse-human chimeric antibody, human IgG1 constant region
As to B1, the binding result in test [1] was “no binding (tested: about 150 nM)”; in test [2], “no binding”; in test [4], “no binding”. Moreover, in test [3], the EC50 (in general, the midpoint of the concentration-response curve) came to 3.43 nM.

B2: HFB2-4hz42hG1 (antibody, V domains shown)
VH: QVQLVQSGAEVKKPGASVKVSCKASGFSLTSYGVSWVRQAPGQGLEWMGVIWGDGSTNYAQKLQGRVTMTKDTSTSTAYMELRSLRSDDTAVYYCARVVYWGQGTLVTVSS
VL: EIVMTQSPATLSVSPGERATLSCRSSKSLLHSNGKTYLYWFQQKPGQAPRLLIYRMSNLASGIPARFSGSGSGTEFTLTISSVQSEDVAVYYCMQHLEYPYTFGQGTKLEIK
notes: Humanized, human IgG1 (hG1); also called HFB2-VH10VL6
In the case of B2, the concentration for a half-maximal effect (EC50 (read off the curve)) (commonly the concentration needed to bring the measured effect to its halfway point) in test [5] is about 0.3 nM.
